We go through two molecules from PMC12319226 (Frontiers in Bioinformatics, 2025).

Holding throughout (experiment): BLI
What all share (conditions): both partners purified

Test [1] deals with T1, fHbp m002419 (Neisseria meningitidis fHbp v3.28, …, chimera).
T1 chain: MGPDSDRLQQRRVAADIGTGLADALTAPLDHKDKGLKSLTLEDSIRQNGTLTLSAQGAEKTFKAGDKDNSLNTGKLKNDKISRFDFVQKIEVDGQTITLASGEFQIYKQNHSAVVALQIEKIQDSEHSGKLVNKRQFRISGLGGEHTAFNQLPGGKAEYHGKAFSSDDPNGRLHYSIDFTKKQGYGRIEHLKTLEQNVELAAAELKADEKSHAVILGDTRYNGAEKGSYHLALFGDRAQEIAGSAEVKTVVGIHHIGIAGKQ

The target in test [2] is T2, fHbp m001015 (Neisseria meningitidis fHbp v3.28, …, point mutant).
T2 chain: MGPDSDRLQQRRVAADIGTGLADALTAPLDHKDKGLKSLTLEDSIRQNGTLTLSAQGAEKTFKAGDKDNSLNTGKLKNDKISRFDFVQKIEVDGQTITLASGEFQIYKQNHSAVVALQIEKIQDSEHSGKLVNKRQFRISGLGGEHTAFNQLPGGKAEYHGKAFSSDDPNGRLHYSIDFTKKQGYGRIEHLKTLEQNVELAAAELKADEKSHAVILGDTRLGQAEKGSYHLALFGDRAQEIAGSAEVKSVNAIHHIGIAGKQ

Test [3] has as its target T3, fHbp m001039 (Neisseria meningitidis fHbp v3.28, …, point mutant).
T3 chain: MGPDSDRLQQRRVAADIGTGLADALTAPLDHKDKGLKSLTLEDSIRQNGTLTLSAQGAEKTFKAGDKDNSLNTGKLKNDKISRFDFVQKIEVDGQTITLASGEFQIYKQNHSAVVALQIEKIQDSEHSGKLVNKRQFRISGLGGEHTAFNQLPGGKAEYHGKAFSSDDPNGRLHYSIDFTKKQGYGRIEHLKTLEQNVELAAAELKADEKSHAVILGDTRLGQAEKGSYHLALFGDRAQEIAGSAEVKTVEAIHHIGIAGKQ

The target of test [4] is T4, fHbp m001099 (Neisseria meningitidis fHbp v3.28-based …, point mutant).
T4 chain: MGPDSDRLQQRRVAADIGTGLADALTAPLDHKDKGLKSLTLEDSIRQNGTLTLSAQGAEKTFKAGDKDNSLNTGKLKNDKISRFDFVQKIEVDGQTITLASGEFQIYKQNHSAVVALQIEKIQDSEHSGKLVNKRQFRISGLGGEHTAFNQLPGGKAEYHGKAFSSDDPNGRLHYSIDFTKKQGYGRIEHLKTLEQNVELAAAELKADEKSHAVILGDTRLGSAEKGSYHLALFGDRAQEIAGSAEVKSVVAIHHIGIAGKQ

Test [5] concerns the target T5, fHbp m001119 (Neisseria meningitidis fHbp v3.28-based …, point mutant).
T5 chain: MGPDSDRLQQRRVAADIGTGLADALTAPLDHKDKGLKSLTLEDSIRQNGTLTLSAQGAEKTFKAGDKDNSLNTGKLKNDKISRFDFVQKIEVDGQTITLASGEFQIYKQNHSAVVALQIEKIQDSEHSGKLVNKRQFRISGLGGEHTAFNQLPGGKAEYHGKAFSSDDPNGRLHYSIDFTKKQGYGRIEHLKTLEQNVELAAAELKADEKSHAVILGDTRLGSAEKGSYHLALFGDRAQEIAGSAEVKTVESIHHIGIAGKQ

Test [6] addresses T6, fHbp m001200 (Neisseria meningitidis fHbp v3.28-based …, point mutant).
T6 chain: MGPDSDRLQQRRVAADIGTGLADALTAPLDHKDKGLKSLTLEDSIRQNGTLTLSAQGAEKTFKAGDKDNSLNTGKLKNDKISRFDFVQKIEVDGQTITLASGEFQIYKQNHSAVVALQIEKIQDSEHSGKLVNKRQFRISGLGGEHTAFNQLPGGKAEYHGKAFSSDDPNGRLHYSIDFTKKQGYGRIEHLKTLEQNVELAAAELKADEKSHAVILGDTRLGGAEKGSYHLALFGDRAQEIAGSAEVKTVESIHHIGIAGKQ

Test [7] deals with T7, fHbp m001211 (Neisseria meningitidis fHbp v3.28-based …, point mutant).
T7 chain: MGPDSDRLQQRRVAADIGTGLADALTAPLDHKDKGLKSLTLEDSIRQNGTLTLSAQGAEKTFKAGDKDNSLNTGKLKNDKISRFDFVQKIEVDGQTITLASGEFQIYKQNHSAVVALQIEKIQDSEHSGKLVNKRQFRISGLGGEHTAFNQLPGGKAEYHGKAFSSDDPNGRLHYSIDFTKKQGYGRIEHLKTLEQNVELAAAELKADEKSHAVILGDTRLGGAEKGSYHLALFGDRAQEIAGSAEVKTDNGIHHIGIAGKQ

Test [8] addresses T8, fHbp m001524 (Neisseria meningitidis, fHbp …, point mutant).
T8 chain: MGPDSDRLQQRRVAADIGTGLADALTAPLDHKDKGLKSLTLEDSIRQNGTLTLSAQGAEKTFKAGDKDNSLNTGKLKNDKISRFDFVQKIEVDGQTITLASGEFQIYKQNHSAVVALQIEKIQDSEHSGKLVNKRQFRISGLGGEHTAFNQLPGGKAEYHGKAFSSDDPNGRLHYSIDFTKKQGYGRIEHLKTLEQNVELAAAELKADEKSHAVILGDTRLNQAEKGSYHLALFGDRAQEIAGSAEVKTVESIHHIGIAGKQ

B1: mAb 1E6 (human) (antibody, V domains shown)
VH: EVQLVQSGAEVKKPGSSVKVSCKASGGTVIDYPITWVRQAPGQGLEWVGGFVPLFRTSNYGQKFQGRVTITADKSTSTASMELNSLTSEDTAIYYCARGDTAMGPFDYWGQGTLVTVSS
VL: SYVLTQPPSLSVAPGKTATLTCGGNNIAGKTVHWYQQRPGQAPVLVISYDSDRPSGIPERFSGSNSANTATLTISRVEAGDEADYYCQVWDRNSDHWVFGGGTKLTVL
notes: source: Expi293, purified (MabSelect SuRe, SEC); copies: 2 + 2
For B1, the equilibrium dissociation constant (Kd) amounted to 0.191 nM in test [1]; 1.11 nM in test [2]; 0.655 nM in test [3]; 0.841 nM in test [4]; 0.886 nM in test [5]; 0.219 nM in test [6]. Also, the results for the Kd in test [7] and in test [8] were 0.507 nM and 0.742 nM, respectively. Also, the koff is 5.3e-05 s⁻¹ in test [1]; 0.000418 s⁻¹ in test [2]; 0.00031 s⁻¹ in test [3]; 0.000237 s⁻¹ in test [4]; 0.000349 s⁻¹ in test [5]; 0.000303 s⁻¹ in test [6]. Moreover, the koff in test [7] was determined as 0.000219 s⁻¹; in test [8], 0.000167 s⁻¹. Besides, the kon in test [1] came to 277200 ± 2090 M⁻¹ s⁻¹; in test [2] it was 375100 ± 1120 M⁻¹ s⁻¹; in test [3], 473100 ± 1890 M⁻¹ s⁻¹; in test [4] it was 281500 ± 1290 M⁻¹ s⁻¹; in test [5], 393800 ± 1250 M⁻¹ s⁻¹; in test [6], 1.385e+06 ± 5610 M⁻¹ s⁻¹. In addition, the kon in test [7] was determined as 431400 ± 2210 M⁻¹ s⁻¹; in test [8], 224700 ± 1680 M⁻¹ s⁻¹.

B2: chimeric antibody h12C1 (antibody, V domains shown)
VH: QVQLQESGPELVKPGASVKISCKASGYSFSDYNMSWVKQSNGKSLEWIGIIDPKYGTINYNQKFKGKATLTVDQASSTAYMQLNSLTSEDSAVYYCVRDYYGSSYFDYWGQGTTLTVSS
VL: DIVLTQSPSSIYASLGERVTLTCKASQDIHNYLNWFQQKPGKSPKTLIYRANRLVDGVPSRFSGGGSGQDYSLTISSLEFEDIGIYYCLQYDEFPPTFGGGTRLEIK
notes: also called humanized 12C1; source: Expi293, purified (MabSelect SuRe, SEC); copies: 2 + 2
Consider B2, for which the Kd in test [1] was found to be 0.237 nM; in test [2], 187 nM; in test [3] it was 65.7 nM; in test [4], 44 nM; in test [5], 0.957 nM; in test [6], 0.243 nM. Further, the Kd in test [7] was 19.8 nM; in test [8], 0.701 nM. Besides, the dissociation rate constant (koff) amounted to 3.39e-05 s⁻¹ in test [1]; 0.02355 ± 0.000153 s⁻¹ in test [2]; 0.0146 s⁻¹ in test [3]; 0.0106 s⁻¹ in test [4]; 0.000266 s⁻¹ in test [5]; 0.000202 s⁻¹ in test [6]. For the same molecule, the koff in test [7] turned out to be 0.00753 s⁻¹; in test [8] it was 0.000117 s⁻¹. Moreover, the association rate constant (kon) stood at 143000 ± 1520 M⁻¹ s⁻¹ in test [1]; 126000 ± 5980 M⁻¹ s⁻¹ in test [2]; 223000 ± 3080 M⁻¹ s⁻¹ in test [3]; 241000 ± 3220 M⁻¹ s⁻¹ in test [4]; 278300 ± 1110 M⁻¹ s⁻¹ in test [5]; 830700 ± 4100 M⁻¹ s⁻¹ in test [6]. The on-rate constant (kon) in test [7] was 381300 ± 3730 M⁻¹ s⁻¹; in test [8], 167000 ± 1950 M⁻¹ s⁻¹.

By Kd is commonly meant a measure of binding affinity in units of concentration. As a reminder, the koff is the rate constant with which the complex falls apart. Lower therefore signals slow dissociation. Usually kon stands for a measure of how fast the partners come together. Low readings indicate slower complex formation, high ones faster complex formation.
